Source: PMC12241602
pKd: −log10 of the molar value.

Legend:
[1] = molecular target: MadB, class I lantibiotic dehydratase of maddinglicin (His6-MadB) (Clostridium sp. Maddingley); test: ITC; leader variant (200 µM, syringe, 20 injections of 2 µL) titrated into MadB (20 µM of the dimer, cell); 25 °C; 50 mM HEPES, 500 mM NaCl, pH 7.5; N counts leader peptide per MadB dimer; at least triplicate, error S.D.
[2] = molecular target: His6-MadB (class I lantibiotic dehydratase MadB) (Clostridium sp. Maddingley); test: ITC; 200 uM leader variant in the syringe titrated into 20 uM MadB dimer in the cell, 20 injections of 2 uL, 25 °C, 50 mM HEPES, 500 mM NaCl, pH 7.5

Row | Substance | stoichiometry N [1] | pKd [2] | stoichiometry N (LP per MadB dimer) [2]
1 | MadL3, leader peptide of maddinglicin A with the first ten residues of the core peptide, residues -23 to +10 | 0.97 |  | 
2 | MadL3 (leader peptide of MadA with the first ten residues of the core peptide) |  | 6.82 | 1
3 | MadL1, isolated leader peptide of maddinglicin A (MadA), residues -23 to -1 | 1.21 |  | 
4 | MadL2 (leader peptide of MadA with the first five residues of the core peptide) |  | 6.49 | 1
5 | MadL1 (isolated leader peptide of maddinglicin A) |  | 6.39 | 1
6 | MadL2, leader peptide of maddinglicin A with the first five residues of the core peptide, residues -23 to +5 | 0.89 |  | 
7 | MadL2_VSVS, MadL2 with the lysines K-12 and K-10 of the VKVK motif changed to serine (peptide) | 1.12 |  | 
